This note sets out measurements from US20240141067A1 (RALLYBIO IPA, published 2024).

Test [1] concerns the target APLDQ GPIIIa (murine integrin β3 humanized to carry the HPA-1a epitope, in GPIIb-IIIa) on APLDQ mouse platelets (mouse) (UniProt O54890). Description: flow cytometry saturation-binding curves on APLDQ platelets. On the technique in general: In flow cytometry, cells or beads pass a laser one at a time.
For test [2] the target is unchanged. In words: flow cytometry saturation-binding curve on APLDQ homozygous platelets.
The target in test [3] is T1, HPA-1a (Leu33 form of human GPIIIa / integrin β3, in GPIIb-IIIa) on HPA-1a/a human platelets (human, UniProt P05106 27-788; P08514 32-1039).
T1 construct: whole, on cells; Native antigen on washed platelets from HPA-1a/a individuals; also called HPA-1a alloantigen; HPA-1a expressed on GPIIIa
Description: flow cytometry on washed human platelets, FITC goat anti-human IgG.

APLDQ GPIIIa (murine integrin β3 humanized to carry the HPA-1a epitope, in GPIIb-IIIa) on APLDQ mouse platelets (mouse), sequence (O54890 26-787, chain 1 of 2): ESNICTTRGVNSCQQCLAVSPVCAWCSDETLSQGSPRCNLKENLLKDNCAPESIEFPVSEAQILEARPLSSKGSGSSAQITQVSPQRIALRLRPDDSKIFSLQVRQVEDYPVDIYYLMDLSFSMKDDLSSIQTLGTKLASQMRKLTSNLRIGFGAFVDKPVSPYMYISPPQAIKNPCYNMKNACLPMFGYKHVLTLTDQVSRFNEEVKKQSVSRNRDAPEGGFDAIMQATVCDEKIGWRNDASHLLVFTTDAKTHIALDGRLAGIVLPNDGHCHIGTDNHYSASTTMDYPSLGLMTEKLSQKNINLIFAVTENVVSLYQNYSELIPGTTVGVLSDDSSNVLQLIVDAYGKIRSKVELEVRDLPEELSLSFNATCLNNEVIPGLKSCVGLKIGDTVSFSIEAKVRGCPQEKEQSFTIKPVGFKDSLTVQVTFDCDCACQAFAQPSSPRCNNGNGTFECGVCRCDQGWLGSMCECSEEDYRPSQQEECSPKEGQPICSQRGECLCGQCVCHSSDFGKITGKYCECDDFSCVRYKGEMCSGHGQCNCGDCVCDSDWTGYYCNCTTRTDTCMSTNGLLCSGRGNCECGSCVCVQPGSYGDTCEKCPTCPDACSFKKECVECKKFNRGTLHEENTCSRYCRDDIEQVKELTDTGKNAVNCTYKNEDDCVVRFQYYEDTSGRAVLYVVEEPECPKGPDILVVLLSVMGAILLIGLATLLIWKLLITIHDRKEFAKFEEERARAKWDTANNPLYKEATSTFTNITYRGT
APLDQ GPIIIa (murine integrin β3 humanized to carry the HPA-1a epitope, in GPIIb-IIIa) on APLDQ mouse platelets (mouse), sequence (Q9QUM0 32-1033, chain 2 of 2, further chain): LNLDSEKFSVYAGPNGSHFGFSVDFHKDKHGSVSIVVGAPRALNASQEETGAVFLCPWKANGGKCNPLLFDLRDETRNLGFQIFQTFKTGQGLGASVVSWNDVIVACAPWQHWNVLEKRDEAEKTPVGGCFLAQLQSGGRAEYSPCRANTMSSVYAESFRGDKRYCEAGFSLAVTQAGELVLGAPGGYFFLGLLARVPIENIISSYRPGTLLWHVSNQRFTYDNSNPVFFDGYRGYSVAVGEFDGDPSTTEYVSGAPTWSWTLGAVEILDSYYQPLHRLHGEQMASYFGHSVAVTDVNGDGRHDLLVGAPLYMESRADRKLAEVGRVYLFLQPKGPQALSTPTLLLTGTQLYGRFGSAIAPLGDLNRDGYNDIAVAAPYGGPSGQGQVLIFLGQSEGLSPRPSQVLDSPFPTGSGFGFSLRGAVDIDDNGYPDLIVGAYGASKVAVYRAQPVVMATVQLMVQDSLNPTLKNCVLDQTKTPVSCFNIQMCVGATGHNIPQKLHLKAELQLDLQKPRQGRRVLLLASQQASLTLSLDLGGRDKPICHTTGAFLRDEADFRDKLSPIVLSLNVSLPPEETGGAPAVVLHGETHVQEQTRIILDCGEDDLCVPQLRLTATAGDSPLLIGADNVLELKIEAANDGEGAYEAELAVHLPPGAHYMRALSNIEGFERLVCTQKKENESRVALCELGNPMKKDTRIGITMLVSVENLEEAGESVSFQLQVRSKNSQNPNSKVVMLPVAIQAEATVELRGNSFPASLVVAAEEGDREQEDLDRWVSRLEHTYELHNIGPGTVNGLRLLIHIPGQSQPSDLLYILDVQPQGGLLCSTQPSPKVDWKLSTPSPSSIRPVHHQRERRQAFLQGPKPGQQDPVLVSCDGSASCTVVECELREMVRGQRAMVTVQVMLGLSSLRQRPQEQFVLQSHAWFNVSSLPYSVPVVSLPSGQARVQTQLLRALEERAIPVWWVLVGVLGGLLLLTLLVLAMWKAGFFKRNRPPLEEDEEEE
T1 sequence (P05106 27-788, chain 1 of 2): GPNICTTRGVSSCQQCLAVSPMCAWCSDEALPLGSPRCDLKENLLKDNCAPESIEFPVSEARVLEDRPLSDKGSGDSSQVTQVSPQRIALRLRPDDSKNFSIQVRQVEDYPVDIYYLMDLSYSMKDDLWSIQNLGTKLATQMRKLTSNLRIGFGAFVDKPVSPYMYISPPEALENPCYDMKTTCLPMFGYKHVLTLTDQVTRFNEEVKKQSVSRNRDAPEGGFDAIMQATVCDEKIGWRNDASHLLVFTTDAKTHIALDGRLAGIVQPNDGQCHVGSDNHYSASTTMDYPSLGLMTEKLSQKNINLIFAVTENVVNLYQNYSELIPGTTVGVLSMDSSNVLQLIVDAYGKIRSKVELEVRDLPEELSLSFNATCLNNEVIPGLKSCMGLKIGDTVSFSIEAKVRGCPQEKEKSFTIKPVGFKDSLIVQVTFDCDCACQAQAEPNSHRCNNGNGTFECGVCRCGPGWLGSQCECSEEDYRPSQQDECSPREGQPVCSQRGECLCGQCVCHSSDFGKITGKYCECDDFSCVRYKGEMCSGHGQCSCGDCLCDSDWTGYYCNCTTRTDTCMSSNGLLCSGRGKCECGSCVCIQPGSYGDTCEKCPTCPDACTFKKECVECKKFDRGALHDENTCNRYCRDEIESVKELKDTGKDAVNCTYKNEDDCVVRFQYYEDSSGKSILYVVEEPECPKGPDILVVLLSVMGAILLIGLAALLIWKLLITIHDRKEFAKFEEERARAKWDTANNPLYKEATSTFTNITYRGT
T1 sequence (P08514 32-1039, chain 2 of 2): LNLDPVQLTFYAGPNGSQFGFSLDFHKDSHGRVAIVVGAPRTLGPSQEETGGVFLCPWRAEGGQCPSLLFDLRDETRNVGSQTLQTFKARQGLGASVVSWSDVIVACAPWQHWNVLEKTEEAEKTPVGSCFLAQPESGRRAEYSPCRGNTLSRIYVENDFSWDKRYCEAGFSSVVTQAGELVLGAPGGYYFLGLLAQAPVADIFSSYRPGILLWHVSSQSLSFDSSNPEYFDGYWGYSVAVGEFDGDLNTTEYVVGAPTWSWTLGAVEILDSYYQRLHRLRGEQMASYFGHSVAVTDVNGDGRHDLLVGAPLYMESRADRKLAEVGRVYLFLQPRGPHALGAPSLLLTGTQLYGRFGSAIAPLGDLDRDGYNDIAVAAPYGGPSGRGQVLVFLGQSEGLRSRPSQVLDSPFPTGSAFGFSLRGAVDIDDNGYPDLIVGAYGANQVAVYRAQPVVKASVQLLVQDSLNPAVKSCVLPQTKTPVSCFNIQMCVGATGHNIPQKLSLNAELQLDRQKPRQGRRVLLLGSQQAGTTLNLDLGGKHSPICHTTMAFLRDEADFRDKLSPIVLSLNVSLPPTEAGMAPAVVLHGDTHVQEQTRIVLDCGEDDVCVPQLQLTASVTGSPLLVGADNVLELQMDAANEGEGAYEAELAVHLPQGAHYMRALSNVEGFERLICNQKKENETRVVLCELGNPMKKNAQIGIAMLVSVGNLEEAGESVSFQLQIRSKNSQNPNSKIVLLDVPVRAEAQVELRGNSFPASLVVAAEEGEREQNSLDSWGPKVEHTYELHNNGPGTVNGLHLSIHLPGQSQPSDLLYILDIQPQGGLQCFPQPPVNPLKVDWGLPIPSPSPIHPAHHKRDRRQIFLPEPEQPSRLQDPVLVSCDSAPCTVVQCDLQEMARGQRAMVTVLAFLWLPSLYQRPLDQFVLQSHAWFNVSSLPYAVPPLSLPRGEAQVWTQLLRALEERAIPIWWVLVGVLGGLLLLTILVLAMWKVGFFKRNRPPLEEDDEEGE

RLYB211 (antibody): the occupancy of available GPIIb-IIIa receptors at ~4 IU/mL in test [1] was below 10%.

B1: RLYB212 (antibody, human IgG1, kappa, V domains shown)
VH: QVQLQQSGPGLVKPSQTLSLTCAISGDSVSSNSAAWNWIRQSPSRGLEWLGRTYFRSNWYNDYAASVKSRITINQDTSKNQLSLQLNSVTPEDTAVYYCARDGAWGGSSWWPGLPHHYYSGMDVWGQGTTVTVSS
VL: EIVLTQSPATLSLSPGERATLSCRASQSVSSYLAWYQQKPGQAPRLLIYDASKRATGIPARFSGSGSGTDFSLTIRSLEPEDFAVYYCQQRSDWQGLTFGGGTKVEIKR
notes: also called monoclonal RLYB212; monospecific monoclonal antibody RLYB212
For B1, the occupancy of available GPIIb-IIIa receptors at ~4 IU/mL in test [1] is below 10%. This molecule registered a concentration that fully saturates GPIIb-IIIa receptors in test [2] above 100 IU/ml. The binding result in test [3] is listed as “binds”.
